{
  "source": "patent US7045617",
  "target": "T1, IRS727 peptide substrate",
  "T1 chain": "KKKLPATGDYMNMSPVGD",
  "data": [
    {"protein": "insulin receptor protein tyrosine kinase (IRK), activated recombinant (protein) VFPCSVYVPDEWEVSREKITLLRELGQGSFGMVYEGNARDIIKGEAETRVAVKTVNESASLRERIEFLNEASVMKGFTCHHVVRLLGVVSKGQPTLVVMELMAHGDLKSYLRSLRPEAENNPGRPPPTLQEMIQMAAEIADGMAYLNAKKFVHRDLAARNCMVAHDFTVKIGDFGMTRDIYETDYYRKGGKGLLPVRWMAPESLKDGVFTTSSDMWSFGVVLWEITSLAEQPYQGLSNEQVLKFVMDGGYLDQPDNCPERVTDLMRMCWQFNPKMRPTFLEIVNLLKDDLHPSFPEVSFFHSEENK", "values": [
      {"measurement": "Km app of the peptide substrate", "value": "Km app (IRS727)=280 µM"}
    ]}
  ]
}
